From patent publication US20200140562A1
Where two headings read alike, the source gives them in different places.

B1: IgG2 control (antibody, V domains shown)
VH: QLQLQKSGPGLVKPSETLSLTCTVSGFTFSNYAMGWIRQPPGKGLEWIGAISGSGGSTYYADSVKGRVTISVDTSKNQFSLKLSSVTAADTAVYYCARGGPGWYAADVWGQGTLVTVSS
VL: EIVLTQSPATLSLSPGERATLSCRASQSISSYLNWYQQKPGQAPRLLIYAASSLQSGIPARFSGSGSGTDFTLTISSLEPEDFAVYYCQQADLPAFAFGGGTKVEIKR
B2: Hu106-222, humanized IgG1 OX40 antibody (antibody, from another filing, V domains shown)
VH: QVQLVQSGSELKKPGASVKVSCKASGYTFTDYSMHWVRQAPGQGLKWMGWINTETGEPTYADDFKGRFVFSLDTSVSTAYLQISSLKAEDTAVYYCANPYYDYVSYYAMDYWGQGTTVTVSS
VL: DIQMTQSPSSLSASVGDRVTITCKASQDVSTAVAWYQQKPGKAPKLLIYSASYLYTGVPSRFSGSGSGTDFTFTISSLQPEDIATYYCQQHYSTPRTFGQGTKLEIK

Assays:
[1] = target: human OX40 on cells (CHO-hOX40, 293HEK-hOX40, Jurkat-hOX40, activated primary CD4+ T cells) (human) (UniProt P43489); experiment: flow cytometry, CHO-hOX40, 0.1953125 nM
[2] = target: human OX40 on cells (CHO-hOX40, 293HEK-hOX40, Jurkat-hOX40, activated primary CD4+ T cells) (human) (UniProt P43489); experiment: flow cytometry, CHO-hOX40, 25 nM
[3] = target: human OX40 on cells (CHO-hOX40, 293HEK-hOX40, Jurkat-hOX40, activated primary CD4+ T cells) (human) (UniProt P43489); experiment: flow cytometry, CHO-hOX40, 50 nM
[4] = target: human OX40 on cells (CHO-hOX40, 293HEK-hOX40, Jurkat-hOX40, activated primary CD4+ T cells) (human) (UniProt P43489); experiment: flow cytometry, CHO-hOX40, 0.09765625 nM
[5] = target: human OX40 on cells (CHO-hOX40, 293HEK-hOX40, Jurkat-hOX40, activated primary CD4+ T cells) (human) (UniProt P43489); experiment: flow cytometry, CHO-hOX40, […]
[6] = target: human OX40 on cells (CHO-hOX40, 293HEK-hOX40, Jurkat-hOX40, activated primary CD4+ T cells) (human) (UniProt P43489); experiment: flow cytometry, CHO-hOX40, 0.048828125 nM
[7] = target: human OX40 on cells (CHO-hOX40, 293HEK-hOX40, Jurkat-hOX40, activated primary CD4+ T cells) (human) (UniProt P43489); experiment: flow cytometry, CHO-hOX40, 3.125 nM
[8] = target: human OX40 on cells (CHO-hOX40, 293HEK-hOX40, Jurkat-hOX40, activated primary CD4+ T cells) (human) (UniProt P43489); experiment: flow cytometry, CHO-hOX40, 200 nM
[9] = target: human OX40 on cells (CHO-hOX40, 293HEK-hOX40, Jurkat-hOX40, activated primary CD4+ T cells) (human) (UniProt P43489); experiment: flow cytometry, CHO-hOX40, 12.5 nM
[10] = target: human OX40 on cells (CHO-hOX40, 293HEK-hOX40, Jurkat-hOX40, activated primary CD4+ T cells) (human) (UniProt P43489); experiment: flow cytometry, CHO-hOX40, 100 nM
[11] = target: human OX40 on cells (CHO-hOX40, 293HEK-hOX40, Jurkat-hOX40, activated primary CD4+ T cells) (human) (UniProt P43489); experiment: flow cytometry, CHO-hOX40, 6.25 nM
[12] = target: human OX40 on cells (CHO-hOX40, 293HEK-hOX40, Jurkat-hOX40, activated primary CD4+ T cells) (human) (UniProt P43489); experiment: flow cytometry, CHO-hOX40, 0.024414063 nM
[13] = target: human OX40 on cells (CHO-hOX40, 293HEK-hOX40, Jurkat-hOX40, activated primary CD4+ T cells) (human) (UniProt P43489); experiment: flow cytometry, CHO-hOX40, 0.78125 nM
[14] = target: human OX40 on cells (CHO-hOX40, 293HEK-hOX40, Jurkat-hOX40, activated primary CD4+ T cells) (human) (UniProt P43489); experiment: flow cytometry, CHO-hOX40, 0.390625 nM
[15] = target: human OX40 on cells (CHO-hOX40, 293HEK-hOX40, Jurkat-hOX40, activated primary CD4+ T cells) (human) (UniProt P43489); experiment: flow cytometry, 293HEK-hOX40, 1.6 nM
[16] = target: human OX40 on cells (CHO-hOX40, 293HEK-hOX40, Jurkat-hOX40, activated primary CD4+ T cells) (human) (UniProt P43489); experiment: flow cytometry, 293HEK-hOX40, 40 nM
[17] = target: human OX40 on cells (CHO-hOX40, 293HEK-hOX40, Jurkat-hOX40, activated primary CD4+ T cells) (human) (UniProt P43489); experiment: flow cytometry, activated CD4+ T cells, donor 2, 100 nM
[18] = target: cyno OX40_Fc (Acro Biosystems) (cyno); experiment: BLI, IgG1 on tip, cyno OX40-Fc 100 nM, avid
[19] = target: human OX40 on cells (CHO-hOX40, 293HEK-hOX40, Jurkat-hOX40, activated primary CD4+ T cells) (human) (UniProt P43489); experiment: flow cytometry, CHO-hOX40
[20] = target: human OX40 on cells (CHO-hOX40, 293HEK-hOX40, Jurkat-hOX40, activated primary CD4+ T cells) (human) (UniProt P43489); experiment: flow cytometry, MFI on CHO-hOX40 over wild-type CHO
[21] = target: human OX40 on cells (CHO-hOX40, 293HEK-hOX40, Jurkat-hOX40, activated primary CD4+ T cells) (human) (UniProt P43489); experiment: flow cytometry, CHO-hOX40, 100 nM blocker, competitor OX40L-hFc-fluorescein
[22] = target: human OX40 on cells (CHO-hOX40, 293HEK-hOX40, Jurkat-hOX40, activated primary CD4+ T cells) (human) (UniProt P43489); experiment: flow cytometry, MFI on CHO-hOX40 over wild-type CHO; remark: listed apart in the source
[23] = target: human OX40_Fc (R&D Systems) (human) (UniProt P43489); experiment: BLI, IgG1 on tip, hOX40-Fc 50 nM, avid
[24] = target: human OX40_Fc (R&D Systems) (human) (UniProt P43489); experiment: BLI, IgG1 on tip, hOX40-Fc 50 nM, avid; remark: listed apart in the source
[25] = target: human OX40 on cells (CHO-hOX40, 293HEK-hOX40, Jurkat-hOX40, activated primary CD4+ T cells) (human) (UniProt P43489); experiment: flow cytometry, 293HEK-hOX40, 200 nM
[26] = target: human OX40 on cells (CHO-hOX40, 293HEK-hOX40, Jurkat-hOX40, activated primary CD4+ T cells) (human) (UniProt P43489); experiment: flow cytometry, CHO-hOX40, 100 nM; remark: listed apart in the source
[27] = target: human OX40 on cells (CHO-hOX40, 293HEK-hOX40, Jurkat-hOX40, activated primary CD4+ T cells) (human) (UniProt P43489); experiment: cell-based or functional assay
[28] = target: human OX40 on cells (CHO-hOX40, 293HEK-hOX40, Jurkat-hOX40, activated primary CD4+ T cells) (human) (UniProt P43489); experiment: flow cytometry, 293HEK-hOX40, 8 nM
[29] = target: human OX40 on cells (CHO-hOX40, 293HEK-hOX40, Jurkat-hOX40, activated primary CD4+ T cells) (human) (UniProt P43489); experiment: flow cytometry, activated CD4+ T cells, donor 1, 100 nM
[30] = target: cyno OX40_Fc (Acro Biosystems) (cyno); experiment: BLI, IgG1 on tip, cyno OX40-Fc 100 nM, avid; remark: listed apart in the source

human OX40 on cells (CHO-hOX40, 293HEK-hOX40, Jurkat-hOX40, activated primary CD4+ T cells) (human), sequence (P43489 29-277): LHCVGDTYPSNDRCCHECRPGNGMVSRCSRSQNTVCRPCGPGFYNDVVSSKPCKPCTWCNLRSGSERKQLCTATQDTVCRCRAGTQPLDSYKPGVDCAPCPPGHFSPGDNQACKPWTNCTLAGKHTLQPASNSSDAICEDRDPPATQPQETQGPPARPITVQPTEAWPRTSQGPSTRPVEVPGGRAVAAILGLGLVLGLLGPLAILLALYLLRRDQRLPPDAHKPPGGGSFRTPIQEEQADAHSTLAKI
human OX40_Fc (R&D Systems) (human), sequence (P43489 29-216): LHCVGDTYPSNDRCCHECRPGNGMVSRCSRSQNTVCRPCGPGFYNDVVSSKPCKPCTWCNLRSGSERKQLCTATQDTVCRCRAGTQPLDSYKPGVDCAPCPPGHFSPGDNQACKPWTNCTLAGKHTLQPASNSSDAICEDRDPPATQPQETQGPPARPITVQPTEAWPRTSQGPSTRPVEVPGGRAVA

Row | Binder | MFI [1] [MFI] | MFI [2] [MFI] | MFI [3] [MFI] | MFI [4] [MFI] | MFI [5] [MFI] | MFI [6] [MFI] | MFI [7] [MFI] | MFI [8] [MFI] | MFI [9] [MFI] | MFI [10] [MFI] | MFI [11] [MFI] | MFI [12] [MFI] | MFI [13] [MFI] | MFI [14] [MFI] | also measured
1 | B1 | 1680 | 22100 | 44100 | 1590 | 2900 | 1560 | 4150 | 216000 | 11900 | 93000 | 6400 | 1510 | 2250 | 1890 | –
2 | B2 | 181000 | 2.24e+06 | 2.34e+06 | 77600 | 1.25e+06 | 49800 | 1.77e+06 | 2.64e+06 | 2.18e+06 | 2.5e+06 | 2.02e+06 | 26700 | 600000 | 474000 | MFI [15]: 650000 MFI; MFI [16]: 1.8e+06 MFI; MFI [17]: 136000 MFI; Kd [18]: 5.17 nM; EC50 [19]: 1.94 nM; Fold difference [20]: 1700 fold; MFI of OX40L signal on CHO-OX40 cells [21]: 25800 MFI; Fold difference [22]: 2630 fold; Kd [23]: 0.25 nM; Kd [24]: 0.475 nM; MFI [25]: 1.79e+06 MFI; CHO-OX40 binding intensity (MFI) [10]: 164000 MFI; CHO-OX40 binding intensity (MFI) [26]: 183000 MFI; NFkB-Luc fold change in Jurkat stimulated by PHA+ anti-CD28 (fold over IgG4 control) [27]: 1.93; NFkB-Luc fold change in Jurkat stimulated by anti-CD3+ anti-CD28 (fold over IgG4 control) [27]: 1.77; MFI [28]: 1.74e+06 MFI; MFI [29]: 115000 MFI; Kd [30]: 4.96 nM
